Reference: patent publication US20130338214

Target: GST-labeled ROR1 (intracellular domain), recombinant, purified from Sf9 insect cells (UniProt Q01973)
Sequence (Q01973 428-937): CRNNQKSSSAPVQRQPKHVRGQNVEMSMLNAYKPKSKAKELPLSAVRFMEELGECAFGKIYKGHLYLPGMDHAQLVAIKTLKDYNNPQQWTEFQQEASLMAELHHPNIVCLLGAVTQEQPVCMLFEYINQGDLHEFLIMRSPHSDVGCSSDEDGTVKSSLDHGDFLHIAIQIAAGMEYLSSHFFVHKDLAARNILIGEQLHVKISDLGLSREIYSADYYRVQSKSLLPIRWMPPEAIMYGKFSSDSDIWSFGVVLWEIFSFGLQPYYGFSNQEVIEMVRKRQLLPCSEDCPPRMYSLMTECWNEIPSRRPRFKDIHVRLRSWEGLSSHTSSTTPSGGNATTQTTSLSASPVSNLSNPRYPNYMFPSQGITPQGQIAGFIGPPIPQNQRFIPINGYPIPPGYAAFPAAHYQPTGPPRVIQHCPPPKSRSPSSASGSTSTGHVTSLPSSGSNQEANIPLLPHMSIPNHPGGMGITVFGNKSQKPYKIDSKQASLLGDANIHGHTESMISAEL

endogenous c-Src (NCI-H1975, 293T, NCI-H23 cells)
in vitro ROR1 kinase assay, western blot with anti-phospho-c-Src antibody (c-Src immunoprecipitated from NCI-H23 and 293T lysates as substrate): c-Src was phosphorylated by ROR1
